Earlier results as cited in patent US20240156960A1 (priority 2020, published 2024).
Where a chain is given by its changes, count along the chain named.

B1: 2M-9F10 (antibody, listed as Homo sapiens, V domains shown)
VH: EVQLLQSGGDLIQPGRSLRLSCAASGFSFEDYAMHWVRQAPGQGLEWVSGISYNGGSIDYVDSVKGRFTISRDNAKNALYLEMNSLRPEDTAFYYCAKDSVRREYTHARVPFDNWGLGTLVTVSS
VL: AIRMTQSPSSLSASVGDRVTISCRATQNINYFLNWYQQKPGRAPKLLIYAASGLQSGVPSRFSGSGTGRVFTLTINSLQPDDFATYYCQQSFVSPRTFGQGTKVDIK
B2: 2M-9H1 (antibody, listed as Homo sapiens, V domains shown)
VH: EVQLLESGGGVVQPGRSLRLSCVASGFNFNNYGMHWVRQAPGKGLEWLAALSYEGSKEHYADSLKGRFTVSRDYSRATLHLHMNSLEPEDTAVYFCAKSSKIFYLGESREVDYWGRGTLVTVSS
VL: DIVMTQSPSSLSAFVGDRVTITCRASRDIGGDLSWFQQKPGKAPERLIYAASSLESGVPSRFSGSGSATEFALTITSLQPEDFATYYCLQHKSYPLTFGGGTKVDIK
B3: 2M-8E7 (antibody, listed as Homo sapiens, V domains shown)
VH: EVQLVESGAEVKKPGSSVKVSCKASGGTFSSYAISWVRQAPGQGLEWMGGIIPIFGTANYAQKFQGRVTVTADESTSTAYMELSSLRSEDTAVYYCARTYSFDSSGYYYDYWGQGTMVTVSS
VL: EIVLTQSPATLSLSPGERATLSCRASQSVSSYLAWYQQKPGQAPRLLIYDASNRATGIPARFSGSGSGTDFTLTISSLEPEDFAVYYCQQRSNWPPKITFGQGTRLEIK
B4: 2M-8H10 (antibody, listed as Homo sapiens, V domains shown)
VH: QVQLVESGGGVVLPGRSLRLSCAASGFTFSTFAMHWVRQAPGKGLEWVAVISDEGSNKYYADSVKGRFTISRDNSRNTLYLQMNSLRAEDTAVYYCARAFYDSNWSVGSYFDSWGQGTPVTVSS
VL: DIQMTQSPDSLAVSLGERATIKCKSSQSVLHSSNNKNYLAWYQQKAGQPPSLLLYWASTRESGVPDRFSGSGSGTDFTLTISSLQAEDVAVYYCQQYYNNQWTFGQGTKVDIK
B5: mAb-88 (antibody, listed as Homo sapiens, V domains shown)
VH: QVQLVESGAEVKKPGSSVKISCKISGDTFSTNAISWLRQAPGREPEWMGGIVPLVGPASYAQRPQGRLTITADEFTNTAYLELNSLRSEDTATYYCARDSDPYTATRRHNHYWYAMDVWGQGTTVTVSS
VL: DIRLTQTPLSLPVTLGQPASISCRSSQIAMHSDGNTYLSWFHQRPGQPPRRLIYKISNRDSGVPDRFSGSGSGTDFTLKISRVEAEDIGTFYCMQGTDWPRTFGQGTKVDIK
B6: mAb-94 (antibody, listed as Homo sapiens, V domains shown)
VH: QVQLVQSGAEVKKPGSSVKVSCKASGGMFTDYAISWVRQAPGQRLEWMGGIMPGLGSPAYAQIFRDRATISADVSTSTAYLELTSLKPEDTAVYYCARDPSILNTGNHHWYDLDIWGQGTTVTVSS
VL: DIQLTQSPLSLPVGLGQSASISCRSSQRVVHTDGNTYLNWYHQRPGQSPRRLIYKVSNRDSGVPDRFSGSGSGTDFTLRISRVEAEDVGVYYCMQSTDWPRTFGQGTKLEIK
B7: mAb-87 (antibody, listed as Homo sapiens, V domains shown)
VH: QVQLQESGPGLVKPSETLSLTCTVSGGSMNHYYWSWIRQPPGKGLEGIGYTYYSGSTNYNPSLKSRVTISVDASKNQFSLRLSSVTAADTAVYYCARGSQIDLRGGLGATFFDYWGQGTLVTVSS
VL: QSVLTQPASVSGSPGQSITISCTGTSSDVGAYNYVSWYQQHPGKAPKLTVYDVRNRPSGVSNRFSGSKSGNTASLTISGLQAEDEAHYYCSSYTSTNTVFGGGTKLTVL
B8: mAb-85 (antibody, listed as Homo sapiens, V domains shown)
VH: QVQLQESGPGLVKPSGTLSLTCAVSGGSITSRDWWSWVRQPPGKGLEWIGEVYHSGSTSYNPSLKSRVTISVDKSKNEFSLKLSSVTAADTAVYYCARAGNIVVMPAAQYYFDYWGQGTLVTVSS
VL: EIVLTQSPSSLSASVGDRVTITCRASQDISNYLAWYQQKPGKAPKLLIYAASTLQSGVPLRFSGSGSGTDFTLTISSLQPEDFATYYCLQLHNYSSFGGGTKVDIK
B9: C022 (antibody, listed as Homo sapiens, V domains shown)
VH: QVQLQESGPGLVKPSETLSVTCTVSGGSISSSRYYWGWIRQPPGKGLEWIGSIYYSGSTYYNPSLKSRVTISVDTSKNQFSLKLSSVTAADTAVYYCARHAAAYYDRSGYYFIEYFQHWGQGTLVTVSS
VL: DIQMTQSPSTLSASVGDSVTITCRASQSISSWLAWYQQKPGKAPKLLIYKASSLESGVPSRFSGSGSGTEFTLTISSLQPDDFATYYCQQYNNYRYTFGQGTKLEIK
B10: mBG67 (antibody, listed as Mus musculus, V domains shown)
VH: EVQLVESGGGLVQPGGSLKLSCAASGFTFSNYGMSWVRQTPDKRLELVATINRNGGSTYYLDSVKVRFTISRDNAKSTLFLQLSSLKSDDTAMYYCARIYDFDEDYFDVWGAGTTVTVSS
VL: QIVLTQSPAIMSASLGERVTMTCTASSSVSSSYLHWYQQKPGSSPKLWIYSTSNLASGVPARFSGSGSGTSYSLTISSMEAEDAATYYCLQYHRSPWTFGGGTKLEIK
B11: mBG21 (antibody, listed as Mus musculus, V domains shown)
VH: QIQLVQSGPELKKPGETVKISCKASGYTFTDYSMHWVKQAPGKGSKWMGWINTETGEPTYADDFKGRFAFSLETSASTAYLQINNLKNEDTATYFCALRRWGQGTLVTVSS
VL: IVMTQTPKFLLVSAGDRVTITCKASQSVSNDVAWFQQKPGQSPKKLLIYFASNRYTGVPDRFTGSGYGTDFTFTITTVQAEDLAVYFCQQDYSSPWTFGGGTKLEIK
B12: mBG57 (antibody, listed as Mus musculus, V domains shown)
VH: B11 VH with S111A
VL: DIVMTQAAPSEPVTPGESVSISCGSSKSLLHSNDNTYLYWFLQRPGQSPQLLIYRMSNLASGVPDRFTGSGSGTAFTLRISRVEAEDVGVYYCMQHLENPLGVRWRHQAGNQT
B13: mBG22 (antibody, listed as Mus musculus, V domains shown)
VH: B11 VH with S111A
VL: IVMTQTPKFLLVSAGDRVTITCKASQSVSNDVAWFQQKPGQSPKLLIYFASNRYTGVPDRFTGSGYGTDFTFTITTVQAEDLAVYFCQQDYSSPWTFGGGTKLEIK
B14: C114 (antibody, listed as Homo sapiens, V domains shown)
VH: QVQLVESGGGLIQPGGSLKLSCVVSGFTVSKNYISWVRQAPGKGLEWVSVIFAGGSTFYADSVKGRFAISRDNSNNTLFLQMNSLRVEDTAIYYCARGDGELFFDQWGQGTLVTVSS
VL: QSVLTQPPSVSGAPGQRVTISCTGTSSNIGAGYDVHWYQQLPGRAPKVLISGNNIRPSEVPDRFSGSRSGTSASLAITSLQPEDEAQYYCQSYDSSLYAVFGGGTKLTVL
B15: C126 (antibody, listed as Homo sapiens, V domains shown)
VH: QVQLQESGPGLVKPSETLSLSCAVSGGSIGSYFWSWIRQPPGKGLEWIGYLHYSGSTNYNPSLKSRVTISVDTSKNQFSLKLSSVTAADTAVYYCARLQWLRGAFDIWGQGTMVTVSS
VL: NFMLTQPHSVSESPGKTVTISCTGSSGSIASNYVQWYQQRPGSAPTTVINEDNQRPSGVPDRFSGSIDSSSNSASLTISGLKTEDEADYYCQSYDSSNLVFGGGTKLTVL
B16: C116 (antibody, listed as Homo sapiens, V domains shown)
VH: QVQLVESGGGVVQPGRSLRLSCAASGFTYSTYAMHWVRQAPGKGLEWVAFISYDGSNKYYADSVKGRFTISRDNSKNTLYLQMNSLRAEDTAVYYCARDFYHNWFDPWGQGTLVTVSS
VL: NFMLTQPHSVSESPGKTVTISCTGSSGSIASNYVQWYQQRPGSAPTTVIYEDNQRPSGVPDRFSGSIDRSSNSASLTISGLKTEDEADYYCQSYDSGNHWVVFGGGTRLTVL
B17: C113 (antibody, listed as Homo sapiens, V domains shown)
VH: QVQLVESGGGVVQPGRSLRLSCAASGFTFSNFGMHWVRQAPGKGLEWVAVIWYDGSNKYYADSVKGRFTISRDNSKNTLYLQMNSLRAEDTAVYYCARGVNPDDILTGVDAFDIWGQGTMVTVSS
VL: B9 VL with S18R, I29M, K42N, Y91H, N93S, Y94S, R95P, Y96L, Q100G, L104V

Tested on: SARS-CoV2
Details: not given

Molecule	Binds to
B1	SARS-CoV2
B2	SARS-CoV2
B3	SARS-CoV2
B4	SARS-CoV2

Target: OC43 S (Human coronavirus OC43, UniProt P36334)
Sequence (P36334 14-1353): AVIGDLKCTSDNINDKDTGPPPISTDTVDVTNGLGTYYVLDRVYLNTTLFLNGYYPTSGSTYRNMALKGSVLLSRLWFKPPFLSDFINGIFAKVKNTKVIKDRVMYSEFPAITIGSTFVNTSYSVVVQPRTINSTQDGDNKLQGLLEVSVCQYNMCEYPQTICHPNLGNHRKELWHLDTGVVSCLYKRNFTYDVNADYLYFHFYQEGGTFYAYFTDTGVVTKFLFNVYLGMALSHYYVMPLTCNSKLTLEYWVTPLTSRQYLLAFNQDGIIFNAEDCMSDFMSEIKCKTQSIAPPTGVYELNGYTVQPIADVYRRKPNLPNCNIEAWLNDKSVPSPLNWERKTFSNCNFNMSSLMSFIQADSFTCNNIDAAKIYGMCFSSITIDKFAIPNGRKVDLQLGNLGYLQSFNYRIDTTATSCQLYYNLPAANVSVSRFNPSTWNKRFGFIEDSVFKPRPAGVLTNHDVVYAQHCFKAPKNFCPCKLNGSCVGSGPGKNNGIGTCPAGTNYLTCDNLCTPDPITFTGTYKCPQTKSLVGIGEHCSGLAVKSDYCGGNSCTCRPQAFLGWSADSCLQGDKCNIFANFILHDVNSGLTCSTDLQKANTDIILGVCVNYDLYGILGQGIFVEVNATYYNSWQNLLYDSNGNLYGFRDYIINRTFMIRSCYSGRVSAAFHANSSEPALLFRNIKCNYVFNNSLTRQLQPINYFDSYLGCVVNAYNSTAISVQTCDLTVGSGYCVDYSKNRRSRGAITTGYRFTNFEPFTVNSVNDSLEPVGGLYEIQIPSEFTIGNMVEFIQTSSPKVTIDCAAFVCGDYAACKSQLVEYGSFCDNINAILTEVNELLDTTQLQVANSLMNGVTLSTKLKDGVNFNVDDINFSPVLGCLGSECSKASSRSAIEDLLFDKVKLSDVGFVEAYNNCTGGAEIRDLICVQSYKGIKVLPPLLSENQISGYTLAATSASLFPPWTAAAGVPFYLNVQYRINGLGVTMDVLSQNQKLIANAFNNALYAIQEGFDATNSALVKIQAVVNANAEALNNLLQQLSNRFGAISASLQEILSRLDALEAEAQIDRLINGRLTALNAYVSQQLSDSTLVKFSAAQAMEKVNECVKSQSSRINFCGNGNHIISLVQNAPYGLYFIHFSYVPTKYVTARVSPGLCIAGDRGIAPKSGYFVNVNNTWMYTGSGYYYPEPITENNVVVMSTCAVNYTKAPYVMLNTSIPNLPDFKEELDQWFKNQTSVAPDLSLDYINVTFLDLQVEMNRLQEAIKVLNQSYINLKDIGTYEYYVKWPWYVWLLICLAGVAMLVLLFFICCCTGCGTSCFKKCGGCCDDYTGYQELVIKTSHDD
Details: Protein + Epitope S, Unk

Molecule	Doesn't Bind to
B5	OC43,
B6	OC43,
B7	OC43,
B8	OC43,

Target: SARS-CoV1 S (Severe acute respiratory syndrome coronavirus, UniProt P59594)
Details: not given

Molecule	Doesn't Bind to
B5	CoV1
B6	CoV1
B7	CoV1
B8	CoV1

Tested on: SARS-CoV1
Details: not given

Molecule	Binds to
B9	SARS-CoV1,

Tested on: SARS-CoV2, SARS-CoV1, NL63, 229E, HKU1, OC43
Details: not given

Molecule	Binds to
B10	NL63
B11	NL63
B12	NL63
B13	NL63

Target: SARS-CoV2 S (Severe acute respiratory syndrome coronavirus 2, UniProt P0DTC2)
Details: Protein + Epitope S, Unk

Molecule	Binds to
B5	SARS-CoV2
B6	SARS-CoV2
B7	SARS-CoV2
B8	SARS-CoV2

Tested on: SARS-CoV1
Details: not given
Remark: another data set of the same source

Molecule	Not Neutralising Vs
B14	SARS-CoV1,
B15	SARS-CoV1,
B16	SARS-CoV1,
B17	SARS-CoV1,

Target: SARS-CoV2 S; RBD (Severe acute respiratory syndrome coronavirus 2, UniProt P0DTC2)
Details: epitope S

Molecule	Binds to
B14	SARS-CoV2
B15	SARS-CoV2
B16	SARS-CoV2
B9	SARS-CoV2
B17	SARS-CoV2

Target: NL63 S (Human coronavirus NL63, UniProt Q6Q1S2)
Sequence (Q6Q1S2 19-1356): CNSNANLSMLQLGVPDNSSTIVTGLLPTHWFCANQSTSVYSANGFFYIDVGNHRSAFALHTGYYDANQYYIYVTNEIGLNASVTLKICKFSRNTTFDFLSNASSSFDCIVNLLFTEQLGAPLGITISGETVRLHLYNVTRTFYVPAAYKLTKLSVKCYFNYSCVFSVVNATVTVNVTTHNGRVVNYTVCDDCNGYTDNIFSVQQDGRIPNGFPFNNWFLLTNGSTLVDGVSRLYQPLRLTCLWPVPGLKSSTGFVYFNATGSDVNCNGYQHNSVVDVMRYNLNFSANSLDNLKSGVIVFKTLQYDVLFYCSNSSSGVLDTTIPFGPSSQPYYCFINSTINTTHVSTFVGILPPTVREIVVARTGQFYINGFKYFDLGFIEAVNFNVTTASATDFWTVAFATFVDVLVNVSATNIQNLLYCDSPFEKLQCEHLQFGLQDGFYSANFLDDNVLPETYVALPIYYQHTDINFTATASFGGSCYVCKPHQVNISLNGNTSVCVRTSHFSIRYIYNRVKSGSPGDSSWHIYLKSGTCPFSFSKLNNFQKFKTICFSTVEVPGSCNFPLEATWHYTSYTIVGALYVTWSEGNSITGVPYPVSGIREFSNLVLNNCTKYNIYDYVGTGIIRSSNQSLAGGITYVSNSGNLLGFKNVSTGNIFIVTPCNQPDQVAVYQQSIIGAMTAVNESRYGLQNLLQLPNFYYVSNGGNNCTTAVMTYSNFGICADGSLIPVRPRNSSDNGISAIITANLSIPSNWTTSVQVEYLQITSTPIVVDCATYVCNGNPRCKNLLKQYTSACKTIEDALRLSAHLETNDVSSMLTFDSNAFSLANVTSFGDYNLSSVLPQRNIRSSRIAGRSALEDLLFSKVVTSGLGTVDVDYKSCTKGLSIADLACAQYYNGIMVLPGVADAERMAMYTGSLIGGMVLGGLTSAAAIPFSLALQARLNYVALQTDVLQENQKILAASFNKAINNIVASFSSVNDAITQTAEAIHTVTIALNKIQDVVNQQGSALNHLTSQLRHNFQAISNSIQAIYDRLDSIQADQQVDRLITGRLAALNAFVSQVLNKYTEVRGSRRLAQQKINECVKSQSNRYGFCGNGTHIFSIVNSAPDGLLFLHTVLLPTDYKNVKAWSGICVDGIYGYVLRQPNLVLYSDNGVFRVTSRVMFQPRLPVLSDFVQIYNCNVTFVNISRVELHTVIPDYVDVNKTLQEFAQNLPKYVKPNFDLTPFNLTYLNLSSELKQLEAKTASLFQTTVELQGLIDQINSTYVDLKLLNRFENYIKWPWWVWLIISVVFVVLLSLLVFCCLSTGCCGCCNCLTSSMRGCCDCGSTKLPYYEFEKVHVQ
Details: Protein + Epitope S, Unk

Molecule	Doesn't Bind to
B5	NL63,
B6	NL63,
B7	NL63,
B8	NL63,
